Here are results for one molecule from US20220380438A1 (OXFORD UNIVERSITY INNOVATION, published 2022).

The target of data set [1] is T1, human androgen receptor (AR), full length (human, UniProt P10275 1-920).
T1 construct: Full-length AR expressed inside transfected HEK293T cells, not on the cell surface; In the NanoBRET assay it was an N- or C-terminal fusion with Nanoluc luciferase or HaloTag; For co-IP the constructs were with or without an N-terminal FLAG tag; Assays were run with or without 10 nM DHT; also called AR1; AR FL
T1 sequence: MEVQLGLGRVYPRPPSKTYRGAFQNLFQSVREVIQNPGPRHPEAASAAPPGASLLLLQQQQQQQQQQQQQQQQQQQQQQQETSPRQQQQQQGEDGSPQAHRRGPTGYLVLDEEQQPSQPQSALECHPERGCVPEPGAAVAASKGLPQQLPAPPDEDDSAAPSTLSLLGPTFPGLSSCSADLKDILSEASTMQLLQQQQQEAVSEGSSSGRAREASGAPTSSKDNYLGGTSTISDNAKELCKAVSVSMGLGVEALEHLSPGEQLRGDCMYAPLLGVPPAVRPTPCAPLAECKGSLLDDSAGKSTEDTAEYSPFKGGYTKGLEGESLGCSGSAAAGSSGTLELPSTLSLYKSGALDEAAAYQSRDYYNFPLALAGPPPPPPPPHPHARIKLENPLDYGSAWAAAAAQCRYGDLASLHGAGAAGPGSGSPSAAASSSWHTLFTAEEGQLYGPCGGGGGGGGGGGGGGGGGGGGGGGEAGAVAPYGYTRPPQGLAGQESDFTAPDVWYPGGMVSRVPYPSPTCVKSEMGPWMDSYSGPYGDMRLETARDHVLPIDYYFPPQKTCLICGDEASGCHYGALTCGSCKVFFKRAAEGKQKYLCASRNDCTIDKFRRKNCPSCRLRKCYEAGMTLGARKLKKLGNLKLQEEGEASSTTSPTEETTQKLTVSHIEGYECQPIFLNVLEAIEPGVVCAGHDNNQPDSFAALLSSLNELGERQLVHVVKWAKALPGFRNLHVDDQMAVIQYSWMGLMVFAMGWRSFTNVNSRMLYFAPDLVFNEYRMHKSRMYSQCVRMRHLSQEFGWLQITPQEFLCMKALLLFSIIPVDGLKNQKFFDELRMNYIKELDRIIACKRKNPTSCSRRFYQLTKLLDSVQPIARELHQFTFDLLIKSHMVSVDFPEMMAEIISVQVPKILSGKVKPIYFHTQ
The experiment in a line: NanoBRET, Nluc and HaloTag fusions co-transfected in HEK293T cells. The protocol: (§1) To investigate the interaction between AR FL protein and AR2 protein, NanoBRET assay was performed (Promega NanoBRET™ Protein: Protein Interaction System). Briefly, HEK293T cells were co-transfected with a Nanoluc luciferase (Nluc) fusion plasmid and a HaloTag fusion plasmid with Lipofectamine 2000 reagent. Nluc-MDM2 and p53-HaloTag pair was included as the positive control, and Nluc-MDM2 and HaloTag-SMAD4 pair as negative control. At 24 h after transfection, cells were treated with or without 10 nM DHT. HaloTag NanoBRET 618 ligand or DMSO (no-ligand control) was added. At 24 h, NanoBRET Nano-Glo substrate was added and NanoBRET readings at 460 nm and 618 nm were obtained. Mean corrected NanoBRET ratio in milliBRET unit was calculated using the formula: Mean corrected Nanobret ratio, […]
For orientation: In BRET a luciferase serves as donor, and the signal depends on an acceptor being close.

Data set [2] deals with the molecule itself. The description is as above. Here is the method:
as §1

B1: human androgen receptor splice variant 2 (AR2) (receptor)
chain: MILWLHSLETARDHVLPIDYYFPPQKTCLICGDEASGCHYGALTCGSCKVFFKRAAEGKQKYLCASRNDCTIDKFRRKNCPSCRLRKCYEAGMTLGARKLKKLGNLKLQEEGEASSTTSPTEETTQKLTVSHIEGYECQPIFLNVLEAIEPGVVCAGHDNNQPDSFAALLSSLNELGERQLVHVVKWAKALPGFRNLHVDDQMAVIQYSWMGLMVFAMGWRSFTNVNSRMLYFAPDLVFNEYRMHKSRMYSQCVRMRHLSQEFGWLQITPQEFLCMKALLLFSIIPVDGLKNQKFFDELRMNYIKELDRIIACKRKNPTSCSRRFYQLTKLLDSVQPIARELHQFTFDLLIKSHMVSVDFPEMMAEIISVQVPKILSGKVKPIYFHTQ
notes: Whole AR2 expressed inside transfected HEK293T cells; In the NanoBRET assay it was a fusion with Nanoluc luciferase or HaloTag; For co-IP it was with or without an N-terminal FLAG tag (anti-FLAG M2 beads); also called AR45; AR splice variant 2
In the case of B1, the binding result in data set [1] and in data set [2] was “binds” throughout.
